The target in assay [1] is CD137 (binding assay) (UniProt Q07011 24-186, limits assumed). The experiment in a line: FCM or ELISA, graded.
The target of assay [2] is PD-1 (binding assay) (UniProt Q15116 25-167, limits assumed). As to the kind of experiment: FCM or ELISA, graded.
Assay [3] addresses T1, PD-L1 (human, UniProt Q9NZQ7 19-238, limits assumed).
T1 construct: The reporter assay used Raji cells expressing human PD-L1
As to the kind of experiment: PD-L1 binding (FIG. 14A; method not specified); reference antibody.

Two molecules from patent publication US20250388669A1 (published 2025) can be followed below.

T1 sequence (Q9NZQ7 19-238 limits assumed): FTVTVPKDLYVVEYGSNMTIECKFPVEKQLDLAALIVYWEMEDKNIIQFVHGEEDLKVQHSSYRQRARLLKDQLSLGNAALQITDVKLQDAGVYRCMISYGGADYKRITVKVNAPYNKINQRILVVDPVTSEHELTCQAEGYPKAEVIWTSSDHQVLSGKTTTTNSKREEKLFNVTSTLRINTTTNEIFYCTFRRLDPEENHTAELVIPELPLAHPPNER
Chain of PD-1 (binding assay) (Q15116 25-167 limits assumed): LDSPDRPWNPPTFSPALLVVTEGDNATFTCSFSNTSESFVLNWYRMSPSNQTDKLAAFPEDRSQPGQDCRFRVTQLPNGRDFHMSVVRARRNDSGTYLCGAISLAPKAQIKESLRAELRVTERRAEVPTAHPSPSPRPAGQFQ

B1: Ly2396 (bispecific antibody, human IgG1, kappa)
heavy 1: QVTLKESGPALVKPTQTLTLTCTFSGFSLSTSGTCVSWIRQPPGKALEWLATICWEDSKGYNPSLKSRLTISKDTSKNQAVLTMTNMDPVDTATYYCARREDSGYFWFPYWGQGTLVTVSSASTKGPSVFPLAPSSKSTSGGTAALGCLVKDYFPEPVTVSWNSGALTSGVHTFPAVLQSSGLYSLSSVVTVPSSSLGTQTYICNVNHKPSNTKVDKKVEPKSCDKTHTCPPCPAPEAAGPSVFLFPPKPKDTLMISRTPEVTCVVVDVSHEDPEVKFNWYVDGVEVHNAKTKPREEQYNSTYRVVSVLTVLHQDWLNGKEYKCKVSNKALPAPIEKTISKAKGQPREPQVYTLPPSREEMTKNQVSLWCLVKGFYPSDIAVEWESNGQPENNYKTTPPVLDSDGSFFLYSKLTVDKSRWQQGNVFSCSVMHEALHNHYTQKSLSLSPGGGGGSGGGGSGGGGSGGGGSQVQLVQSGAEVKKPGASVKVSCKASGYTFAGFEMHWVRQAPGQGLEWMGAIDPKTGGTDYNQKFKDRVTMTRDTSISTAYMELSRLRSDDTAVYYCARDLGYFDVWGQGTLVTVSS
heavy 2: QVTLKESGPALVKPTQTLTLTCTFSGFSLSTSGTCVSWIRQPPGKALEWLATICWEDSKGYNPSLKSRLTISKDTSKNQAVLTMTNMDPVDTATYYCARREDSGYFWFPYWGQGTLVTVSSASTKGPSVFPLAPSSKSTSGGTAALGCLVKDYFPEPVTVSWNSGALTSGVHTFPAVLQSSGLYSLSSVVTVPSSSLGTQTYICNVNHKPSNTKVDKKVEPKSCDKTHTCPPCPAPEAAGPSVFLFPPKPKDTLMISRTPEVTCVVVDVSHEDPEVKFNWYVDGVEVHNAKTKPREEQYNSTYRVVSVLTVLHQDWLNGKEYKCKVSNKALPAPIEKTISKAKGQPREPQVYTLPPSREEMTKNQVSLSCAVKGFYPSDIAVEWESNGQPENNYKTTPPVLDSDGSFFLVSKLTVDKSRWQQGNVFSCSVMHEALHNRFTQKSLSLSPGGGGGSGGGGSGGGGSGGGGSDIQMTQSPSSLSASVGDRVTITCRASQDIRSNLNWYQQKPGGAVKLLIYYTSRLHSGVPSRFSGSGSGTDYTLTISSLQPEDFATYFCQQSEKLPRTFGGGTKVEIR
light: NIQMTQSPSSLSASVGDRVTITCKAGQNVNNYLAWYQQKPGKAPKVLIFNANSLQTGVPSRFSGSGSGTDFTLTISSLQPEDFATYYCQQYNSWPTFGGGTKVEIKRTVAAPSVFIFPPSDEQLKSGTASVVCLLNNFYPREAKVQWKVDNALQSGNSQESVTEQDSKDSTYSLSSTLTLSKADYEKHKVYACEVTHQGLSSPVTKSFNRGEC
notes: PD-1 Fabs (Ly516) x terminal CD137 Fv
With B1, the binding result in assay [1] and in assay [2] was “binds” throughout.

B2: Ly076 (antibody, V domains shown)
VH: QVQLVQSGAEVKKPGASVKVSCKASGYTFTDFWMSWVRQAPGQGLEWMGQIYPNTGTTHSNEKFKGRVTMTRDTSTSTVYMELSSLRSEDTAVYYCARSYHISTTPNWFAYWGQGTLVTVSS
VL: DIQMTQSPSSLSASVGDRVTITCKASQNVYKKLEWYQQKPGKVPKVLIYHTNILQTGVPSRFSGSGSGTDYTLTISSLQPEDVATYYCYQWNSGPTFGGGTKVEIK
notes: Parent mAb; also called parent anti-PD-L1 antibody
Turning to B2, the binding result in assay [3] is reported as “binds”.
